Data on one substance can be found in patent US20210060185A1.

This test concerns the target dGvpC (Ana GvpC with SG-… at the C-terminus, encoded in the acoustic sensor gene for ClpXP) (Anabaena flos-aquae) (UniProt P09413). The test can be described thus: cell-based or functional assay.

dGvpC (Ana GvpC with SG-… at the C-terminus, encoded in the acoustic sensor gene for ClpXP) (Anabaena flos-aquae), sequence (P09413 1-193, tags or fused parts left off): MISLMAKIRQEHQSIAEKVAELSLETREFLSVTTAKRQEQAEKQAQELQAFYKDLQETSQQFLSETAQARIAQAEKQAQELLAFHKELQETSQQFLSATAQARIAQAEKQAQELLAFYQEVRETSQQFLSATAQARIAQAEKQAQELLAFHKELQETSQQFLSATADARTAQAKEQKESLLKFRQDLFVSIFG

Take “ClpXP of E. coli Nissle 1917 (native, or ClpX and ClpP cloned from the Nissle genome under the pBAD promoter) (from UniProt P0A6H1 2-424; P0A6G7 15-207) (enzyme)”: the hydrostatic collapse pressure midpoint of intact WT Nissle cells, ASGClpXP against ARGWT stood at 160 kPa; the hydrostatic collapse pressure midpoint of ΔClpXP Nissle cells with against without ClpXP induction is 160 kPa; the nonlinear ultrasound contrast of live WT Nissle cells, ASGClpXP against ARGWT was 13 dB; the nonlinear ultrasound contrast of ΔClpXP Nissle cells with against without ClpXP induction turned out to be 6.7 dB.
